# Assay results published in article PMC8741639 (Structure (London, England : 1993), 2021).
# Molecular target: the molecule itself
# Assay: cryo-EM structure
protein,measurement,value
"AcrA, periplasmic membrane fusion protein of the AcrAB-TolC efflux pump (natural protein) CDDKQAQQGGQQMPAVGVVTVKTEPLQITTELPGRTSAYRIAEVRPQVSGIILKRNFKEGSDIEAGVSLYQIDPATYQATYDSAKGDLAKAQAAANIAQLTVNRYQKLLGTQYISKQEYDQALADAQQANAAVTAAKAAVETARINLAYTKVTSPISGRIGKSNVTEGALVQNGQATALATVQQLDPIYVDVTQSSNDFLRLKQELANGTLKQENGKAKVSLITSDGIKFPQDGTLEFSDVTVDQTTGSITLRAIFPNPDHTLLPGMFVRARLEEGLNPNAILVPQQGVTRTPRGDATVLVVGADDKVETRPIVASQAIGDKWLVTEGLKAGDRVVISGLQKVRPGVQVKAQEVTADNNQQAASGAQPEQSKS",stoichiometry N,6
